Columns and labels:
[1] = tested on: T1, Str2 circular zymogen of RNase 1
T1 sequence: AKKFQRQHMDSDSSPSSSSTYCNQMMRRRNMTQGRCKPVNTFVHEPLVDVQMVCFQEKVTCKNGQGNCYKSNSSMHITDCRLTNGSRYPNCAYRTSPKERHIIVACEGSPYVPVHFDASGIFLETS

[2] = tested on: T2, Str3 circular zymogen of RNase 1
T2 sequence: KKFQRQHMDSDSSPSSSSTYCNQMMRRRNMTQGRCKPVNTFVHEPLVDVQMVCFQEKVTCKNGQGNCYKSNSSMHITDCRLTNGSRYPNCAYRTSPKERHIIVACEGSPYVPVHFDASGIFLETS

[3] = tested on: T3, Str4 circular zymogen of RNase 1
T3 sequence: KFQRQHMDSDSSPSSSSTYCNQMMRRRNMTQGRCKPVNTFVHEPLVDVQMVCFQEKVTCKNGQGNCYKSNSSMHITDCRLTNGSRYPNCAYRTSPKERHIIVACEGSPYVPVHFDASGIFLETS

[4] = tested on: T4, wild-type RNase 1
T4 sequence: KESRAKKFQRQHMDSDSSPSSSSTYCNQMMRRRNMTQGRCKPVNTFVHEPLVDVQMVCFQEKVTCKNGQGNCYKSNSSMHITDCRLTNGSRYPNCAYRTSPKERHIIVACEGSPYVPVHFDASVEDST

Substance: HIV-1 protease
- kcat/KM (HIV-1 protease) [1]: 3900 M⁻¹ s⁻¹
- kcat/KM (HIV-1 protease) [2]: 1300 M⁻¹ s⁻¹
- kcat/KM (HIV-1 protease) [3]: 2500 M⁻¹ s⁻¹
- proteolytic cleavage after 3 hours of treatment at 37° C. [4]: no detectable cleavage of wild-type RNase 1 was observed

Reference: patent US20200405829
